Results taken from patent US20220307001.

Columns and labels:
[1] = system: xCas9 3.7 nuclease (evolved SpCas9) (Streptococcus pyogenes); assay: cell_activity; conditions: GUIDE-seq HEK293T
[2] = system: xCas9(3.7)-BE3 (Streptococcus pyogenes); assay: cell_activity; conditions: HEK293T; PAM GAA; SD 0.75; >50-fold over SpCas9-BE3

FANCF GAA site sgRNA spacer ; FANCF GAA PAM target
activity (on-target reads) ([1]; PAM GAA, no off-target reads): 3630
activity (% C-to-T editing) [2]: 10

FANCF CGT site sgRNA spacer ; FANCF CGT PAM target
activity (on-target reads) ([1]; PAM CGT, no off-target reads): 3060

EMX1 site sgRNA spacer ; EMX1 site target, GGG PAM
activity (on-target reads) ([1]; PAM GGG, zero off-target reads): 6870
